According to article doi:10.1101/2025.08.21.671500:

T1: FOXA2 forkhead domain (UniProt Q9Y261 159-252)
T1 sequence: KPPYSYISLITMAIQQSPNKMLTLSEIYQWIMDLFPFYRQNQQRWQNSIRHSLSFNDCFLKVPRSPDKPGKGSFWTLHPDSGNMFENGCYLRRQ

T2: FOXA1 forkhead domain;FOXA2 forkhead domain, Twin-Strep-tagged (human?;human?, UniProt P55317;Q9Y261 169-260;159-252, |)
T2 sequence 1: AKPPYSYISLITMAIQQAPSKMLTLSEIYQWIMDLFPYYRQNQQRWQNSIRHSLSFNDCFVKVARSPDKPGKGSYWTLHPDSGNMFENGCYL
T2 sequence 2: T1 sequence

T3: FOXA1 forkhead domain (UniProt P55317 169-260)
T3 sequence: T2 sequence 1

B1: C (canonical FOXA motif) (dsDNA)
DNA 1: CCGCCGCCGTGTTTACTTTGCCGCCGCC
DNA 2: GGCGGCGGCAAAGTAAACACGGCGGCGG
B2: PAL (extended palindromic motif) (dsDNA)
DNA 1: CCGCCGTAAGTAAATATTTACTTAGCCGCC
DNA 2: GGCGGCTAAGTAAATATTTACTTACGGCGG
B3: 2C (two canonical motifs separated by 3 nt) (dsDNA)
DNA 1: CCGCCGTATTTACTGAGTAAATAGCCGCC
DNA 2: GGCGGCTATTTACTCAGTAAATACGGCGG
B4: BLI 40-mer (dsDNA)
DNA 1: GTGTCTCCTGCTCTGTCAGCAGGGCACTGTACTTGCTGAT
DNA 2: ATCAGCAAGTACAGTGCCCTGCTGACAGAGCAGGAGACAC

Columns and labels:
FOXA2 forkhead domain [1] = target: T1, FOXA2 forkhead domain; experiment: EMSA
[2] = target: T2, FOXA1 forkhead domain;FOXA2 forkhead …; experiment: EMSA
FOXA1 forkhead domain [3] = target: T3, FOXA1 forkhead domain; experiment: EMSA
FOXA2 forkhead domain [4] = target: T1, FOXA2 forkhead domain; experiment: BLI
FOXA1 forkhead domain [5] = target: T3, FOXA1 forkhead domain; experiment: BLI

| Binder | binding result (FOXA2 forkhead domain [1]) | binding result [2] | binding result (FOXA1 forkhead domain [3]) | binding result (FOXA2 forkhead domain [4]) | binding result (FOXA1 forkhead domain [5]) |
| --- | --- | --- | --- | --- | --- |
| B1 | binds | – | – | – | – |
| B2 | binds | binds | binds | – | – |
| B3 | binds | binds | binds | – | – |
| B4 | – | – | – | binds | binds |
